According to patent US20180273587A1 (AILERON THERAPEUTICS, published 2018):
Positions of bridges follow the written chain, without caps; N, C: chain ends. Non-standard residues stand in square brackets, D forms with d. Phe(4-F) = N[C@@H](Cc1ccc(F)cc1)C(=O)O; R8 = C=CCCCCCC[C@@](C)(N)C(=O)O; Cit = NC(=O)NCCC[C@H](N)C(=O)O; αMeD = C[C@](N)(CC(=O)O)C(=O)O; hLeu = CC(C)CC[C@H](N)C(=O)O; S5 = C=CCCC[C@](C)(N)C(=O)O

B1: SEQ ID NO: 1776 (peptide)
peptide: Ac-IWIAQALR[R8][hLeu]GDAFN[S5][Phe(4-F)]YA-NH2
modifications: staple 9-16
SMILES: CC[C@H](C)[C@H](NC(C)=O)C(=O)N[C@@H](Cc1c[nH]c2ccccc12)C(=O)N[C@H](C(=O)N[C@@H](C)C(=O)N[C@@H](CCC(N)=O)C(=O)N[C@@H](C)C(=O)N[C@@H](CC(C)C)C(=O)N[C@@H](CCCNC(=N)N)C(=O)N[C@]1(C)CCCCCCC=CCCC[C@@](C)(C(=O)N[C@@H](Cc2ccc(F)cc2)C(=O)N[C@@H](Cc2ccc(O)cc2)C(=O)N[C@@H](C)C(N)=O)NC(=O)[C@H](CC(N)=O)NC(=O)[C@H](Cc2ccccc2)NC(=O)[C@H](C)NC(=O)[C@H](CC(=O)O)NC(=O)CNC(=O)[C@H](CCC(C)C)NC1=O)[C@@H](C)CC
B2: SEQ ID NO: 1777 (peptide)
peptide: Ac-IWIAQALR[R8][hLeu]GDAFN[S5]Y[Phe(4-F)]A-NH2
modifications: staple 9-16
SMILES: CC[C@H](C)[C@H](NC(C)=O)C(=O)N[C@@H](Cc1c[nH]c2ccccc12)C(=O)N[C@H](C(=O)N[C@@H](C)C(=O)N[C@@H](CCC(N)=O)C(=O)N[C@@H](C)C(=O)N[C@@H](CC(C)C)C(=O)N[C@@H](CCCNC(=N)N)C(=O)N[C@]1(C)CCCCCCC=CCCC[C@@](C)(C(=O)N[C@@H](Cc2ccc(O)cc2)C(=O)N[C@@H](Cc2ccc(F)cc2)C(=O)N[C@@H](C)C(N)=O)NC(=O)[C@H](CC(N)=O)NC(=O)[C@H](Cc2ccccc2)NC(=O)[C@H](C)NC(=O)[C@H](CC(=O)O)NC(=O)CNC(=O)[C@H](CCC(C)C)NC1=O)[C@@H](C)CC
B3: SEQ ID NO: 1778 (peptide)
peptide: Ac-IWIAQALR[R8][hLeu]GDAFN[S5][Phe(4-F)][Phe(4-F)]A-NH2
modifications: staple 9-16
SMILES: CC[C@H](C)[C@H](NC(C)=O)C(=O)N[C@@H](Cc1c[nH]c2ccccc12)C(=O)N[C@H](C(=O)N[C@@H](C)C(=O)N[C@@H](CCC(N)=O)C(=O)N[C@@H](C)C(=O)N[C@@H](CC(C)C)C(=O)N[C@@H](CCCNC(=N)N)C(=O)N[C@]1(C)CCCCCCC=CCCC[C@@](C)(C(=O)N[C@@H](Cc2ccc(F)cc2)C(=O)N[C@@H](Cc2ccc(F)cc2)C(=O)N[C@@H](C)C(N)=O)NC(=O)[C@H](CC(N)=O)NC(=O)[C@H](Cc2ccccc2)NC(=O)[C@H](C)NC(=O)[C@H](CC(=O)O)NC(=O)CNC(=O)[C@H](CCC(C)C)NC1=O)[C@@H](C)CC
B4: SEQ ID NO: 1768 (peptide)
peptide: Ac-IWIAQALR[R8]IG[αMeD]AFN[S5]YYA-NH2
modifications: staple 9-16
SMILES: CC[C@H](C)[C@H](NC(C)=O)C(=O)N[C@@H](Cc1c[nH]c2ccccc12)C(=O)N[C@H](C(=O)N[C@@H](C)C(=O)N[C@@H](CCC(N)=O)C(=O)N[C@@H](C)C(=O)N[C@@H](CC(C)C)C(=O)N[C@@H](CCCNC(=N)N)C(=O)N[C@]1(C)CCCCCCC=CCCC[C@@](C)(C(=O)N[C@@H](Cc2ccc(O)cc2)C(=O)N[C@@H](Cc2ccc(O)cc2)C(=O)N[C@@H](C)C(N)=O)NC(=O)[C@H](CC(N)=O)NC(=O)[C@H](Cc2ccccc2)NC(=O)[C@H](C)NC(=O)[C@](C)(CC(=O)O)NC(=O)CNC(=O)[C@H]([C@@H](C)CC)NC1=O)[C@@H](C)CC
B5: SEQ ID NO: 1771 (peptide)
peptide: Ac-IWIAQAA[Cit][R8]IGDAFN[S5]YYA-NH2
modifications: staple 9-16
SMILES: CC[C@H](C)[C@H](NC(C)=O)C(=O)N[C@@H](Cc1c[nH]c2ccccc12)C(=O)N[C@H](C(=O)N[C@@H](C)C(=O)N[C@@H](CCC(N)=O)C(=O)N[C@@H](C)C(=O)N[C@@H](C)C(=O)N[C@@H](CCCNC(N)=O)C(=O)N[C@]1(C)CCCCCCC=CCCC[C@@](C)(C(=O)N[C@@H](Cc2ccc(O)cc2)C(=O)N[C@@H](Cc2ccc(O)cc2)C(=O)N[C@@H](C)C(N)=O)NC(=O)[C@H](CC(N)=O)NC(=O)[C@H](Cc2ccccc2)NC(=O)[C@H](C)NC(=O)[C@H](CC(=O)O)NC(=O)CNC(=O)[C@H]([C@@H](C)CC)NC1=O)[C@@H](C)CC
B6: SEQ ID NO: 1773 (peptide)
peptide: Ac-IWIAQAL[Cit][R8]IGDAAN[S5]YYA-NH2
modifications: staple 9-16
SMILES: CC[C@H](C)[C@H](NC(C)=O)C(=O)N[C@@H](Cc1c[nH]c2ccccc12)C(=O)N[C@H](C(=O)N[C@@H](C)C(=O)N[C@@H](CCC(N)=O)C(=O)N[C@@H](C)C(=O)N[C@@H](CC(C)C)C(=O)N[C@@H](CCCNC(N)=O)C(=O)N[C@]1(C)CCCCCCC=CCCC[C@@](C)(C(=O)N[C@@H](Cc2ccc(O)cc2)C(=O)N[C@@H](Cc2ccc(O)cc2)C(=O)N[C@@H](C)C(N)=O)NC(=O)[C@H](CC(N)=O)NC(=O)[C@H](C)NC(=O)[C@H](C)NC(=O)[C@H](CC(=O)O)NC(=O)CNC(=O)[C@H]([C@@H](C)CC)NC1=O)[C@@H](C)CC
B7: SEQ ID NO: 1774 (peptide)
peptide: Ac-IWIAQAL[Cit][R8]IGDAVN[S5]YYA-NH2
modifications: staple 9-16
SMILES: CC[C@H](C)[C@H](NC(C)=O)C(=O)N[C@@H](Cc1c[nH]c2ccccc12)C(=O)N[C@H](C(=O)N[C@@H](C)C(=O)N[C@@H](CCC(N)=O)C(=O)N[C@@H](C)C(=O)N[C@@H](CC(C)C)C(=O)N[C@@H](CCCNC(N)=O)C(=O)N[C@]1(C)CCCCCCC=CCCC[C@@](C)(C(=O)N[C@@H](Cc2ccc(O)cc2)C(=O)N[C@@H](Cc2ccc(O)cc2)C(=O)N[C@@H](C)C(N)=O)NC(=O)[C@H](CC(N)=O)NC(=O)[C@H](C(C)C)NC(=O)[C@H](C)NC(=O)[C@H](CC(=O)O)NC(=O)CNC(=O)[C@H]([C@@H](C)CC)NC1=O)[C@@H](C)CC
B8: SEQ ID NO: 1779 (peptide)
peptide: Ac-AWIAAALR[R8][hLeu]GDAFN[S5]Y[Phe(4-F)]A-NH2
modifications: staple 9-16
SMILES: CC[C@H](C)[C@H](NC(=O)[C@H](Cc1c[nH]c2ccccc12)NC(=O)[C@H](C)NC(C)=O)C(=O)N[C@@H](C)C(=O)N[C@@H](C)C(=O)N[C@@H](C)C(=O)N[C@@H](CC(C)C)C(=O)N[C@@H](CCCNC(=N)N)C(=O)N[C@]1(C)CCCCCCC=CCCC[C@@](C)(C(=O)N[C@@H](Cc2ccc(O)cc2)C(=O)N[C@@H](Cc2ccc(F)cc2)C(=O)N[C@@H](C)C(N)=O)NC(=O)[C@H](CC(N)=O)NC(=O)[C@H](Cc2ccccc2)NC(=O)[C@H](C)NC(=O)[C@H](CC(=O)O)NC(=O)CNC(=O)[C@H](CCC(C)C)NC1=O
B9: SEQ ID NO: 1780 (peptide)
peptide: Ac-AWIAAALR[R8][hLeu]GDAFN[S5]A[Phe(4-F)]A-NH2
modifications: staple 9-16
SMILES: CC[C@H](C)[C@H](NC(=O)[C@H](Cc1c[nH]c2ccccc12)NC(=O)[C@H](C)NC(C)=O)C(=O)N[C@@H](C)C(=O)N[C@@H](C)C(=O)N[C@@H](C)C(=O)N[C@@H](CC(C)C)C(=O)N[C@@H](CCCNC(=N)N)C(=O)N[C@]1(C)CCCCCCC=CCCC[C@@](C)(C(=O)N[C@@H](C)C(=O)N[C@@H](Cc2ccc(F)cc2)C(=O)N[C@@H](C)C(N)=O)NC(=O)[C@H](CC(N)=O)NC(=O)[C@H](Cc2ccccc2)NC(=O)[C@H](C)NC(=O)[C@H](CC(=O)O)NC(=O)CNC(=O)[C@H](CCC(C)C)NC1=O

Key:
[1] = biological target: T1, BCL-XL (UniProt Q07817 1-209); assay: Ki; method not stated; unit not printed (nM per Table 6)
T1 construct: Target of the Ki columns

[2] = biological target: T2, MCL-1 (UniProt Q07820 172-327, limits assumed); assay: as above
T2 construct: Target of the Ki columns; also called Myeloid cell leukemia 1
T2 sequence (Q07820 172-327 limits assumed): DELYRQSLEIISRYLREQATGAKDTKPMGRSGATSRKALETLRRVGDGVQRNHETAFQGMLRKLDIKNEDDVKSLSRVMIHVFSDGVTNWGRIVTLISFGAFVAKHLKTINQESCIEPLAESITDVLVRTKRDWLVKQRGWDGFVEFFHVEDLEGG

T1 sequence (Q07817 1-209): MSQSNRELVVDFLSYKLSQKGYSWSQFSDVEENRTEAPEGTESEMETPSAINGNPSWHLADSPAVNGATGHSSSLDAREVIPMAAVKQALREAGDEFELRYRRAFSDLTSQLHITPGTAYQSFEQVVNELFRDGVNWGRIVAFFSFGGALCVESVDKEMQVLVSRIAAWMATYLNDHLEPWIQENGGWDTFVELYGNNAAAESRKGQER

Row | Binder | Ki [1] | Ki [2]
1 | B1 | 43 nM | 58 nM
2 | B2 | 13 nM | 27 nM
3 | B3 | 121 nM | 127 nM
4 | B4 | 206 nM | 
5 | B5 | 85 nM | 
6 | B6 |  | 39.5 nM
7 | B7 |  | 0.8 nM
8 | B8 | 37 nM | 52 nM
9 | B9 | 9 nM | 23 nM
